Data published in the RNAGym collection of RNA variant scans (doi:10.1093/molbev/msab373).

B1: Azoarcus group I ribozyme (parent)
chain: GUGCCUUGCGCCGGGAAACCACGCAAGGGAUGGUGUCAAAUUCGGCGAAACCUAAGCGCCCGCCCGGGCGUAUGGCAACGCCGAGCCAAGCUUCGGCGCCUGCGCCGAUGAAGGUGUAGAGACUAGACGGCACCCACCUAAGGCAAACGCUAUGGUGAAGGCAUAGUCCAGGGAGUGGCGAAAGUCACACAAACCGG

Variants of: B1
Assay: reverse-splicing fitness (ratio to wild type); higher = more active; in vitro selection; Mg2+ level not given
Outline: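 An in vitro group I ribozyme library with randomized positions was T7-transcribed and gel-purified. In triplicate, 10 pmol RNA in EPPS pH 7.5 was reacted with 50 pmoles of a 30-nt RNA substrate for 1 h at 37 °C across several added MgCl2 levels (1–48 mM), then stopped with EDTA. Products were reverse transcribed from a substrate-complementary primer, PCR-amplified and sequenced (HiSeq 4000). Fitness is a variant's read proportion after selection over that before, normalised to wild type.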

Q: For C82G A120C C150A C169G, which reverse-splicing fitness is on record?
A: 0.00837

Q: Which reverse-splicing fitness does the source give for C82G A120C C150A C169A here?
A: 0.0151

Q: Which reverse-splicing fitness does the source give for C82G A120C C150A C169U here?
A: 0.0118

Q: Which reverse-splicing fitness does the source give for C82G A120G A145G C169A here?
A: 0.0319

Q: With C82G A120G A145G C169U as the variant, how does the reverse-splicing fitness read?
A: 0.0249

Q: Which reverse-splicing fitness does the source give for C82G A120G A145G C169G here?
A: 0.0507

Q: Which reverse-splicing fitness does the source give for C82G A120G A145G C150U C169G U176A here?
A: 0.0169

Q: For C82G A120G A145G C150U C169G U176G, which reverse-splicing fitness is on record?
A: 0.00428

Q: For C82G A120G A145G C150U C169G U176C, which reverse-splicing fitness is on record?
A: 0.0245

Q: Which reverse-splicing fitness does the source give for C82G A120C C150A U176A here?
A: 0.0182

Q: For C82G A120C C150A U176G, which reverse-splicing fitness is on record?
A: 0.0105

Q: For C82G A120C C150A U176C, which reverse-splicing fitness is on record?
A: 0.0287

Q: For C82G A120G A145G C150A C169U U176A, which reverse-splicing fitness is on record?
A: 0.021

Q: Which reverse-splicing fitness does the source give for C82G A120G A145G C150A C169U U176G here?
A: 0.00581

Q: Which reverse-splicing fitness does the source give for C82G A120G A145G C150A C169U U176C here?
A: 0.0168

Q: With C82G A120G A145G C150A U176A as the variant, how does the reverse-splicing fitness read?
A: 0.011

Q: With C82G A120G A145G C150A U176G as the variant, how does the reverse-splicing fitness read?
A: 0.00757

Q: For C82G A120G A145G C150A U176C, which reverse-splicing fitness is on record?
A: 0.0209

Q: For C82G A120C C150G C169U, which reverse-splicing fitness is on record?
A: 0.0121

Q: With C82G A120C C150G C169A as the variant, how does the reverse-splicing fitness read?
A: 0.00942

Q: Which reverse-splicing fitness does the source give for C82G A120C C150G C169G here?
A: 0.00797

Q: With C82G A120C C169U U176G as the variant, how does the reverse-splicing fitness read?
A: 0.00468

Q: Which reverse-splicing fitness does the source give for C82G A120C C169U U176A here?
A: 0.019

Q: For C82G A120C C169U U176C, which reverse-splicing fitness is on record?
A: 0.0155

Q: For C82G A120G A145G C150U C169A, which reverse-splicing fitness is on record?
A: 0.0266

Q: With C82G A120G A145G C150U C169U as the variant, how does the reverse-splicing fitness read?
A: 0.0236

Q: For C82G A120G A145G C150U C169G, which reverse-splicing fitness is on record?
A: 0.04

Q: For C82G A120G C169G, which reverse-splicing fitness is on record?
A: 0.0529

Q: With C82G A120G C169U as the variant, how does the reverse-splicing fitness read?
A: 0.0237

Q: For C82G A120G C169A, which reverse-splicing fitness is on record?
A: 0.0302

Q: Which reverse-splicing fitness does the source give for C82G A120G A145U C169G U176G here?
A: 0.00374

Q: Which reverse-splicing fitness does the source give for C82G A120G A145U C169G U176C here?
A: 0.0227

Q: For C82G A120G A145U C169G U176A, which reverse-splicing fitness is on record?
A: 0.0157

Q: For C82G A120U, which reverse-splicing fitness is on record?
A: 0.251

Q: With C82G A120G as the variant, how does the reverse-splicing fitness read?
A: 0.029

Q: For C82G A120C C169G U176C, which reverse-splicing fitness is on record?
A: 0.0176

Q: Which reverse-splicing fitness does the source give for C82G A120C C169G U176G here?
A: 0.00385

Q: For C82G A120C C169G U176A, which reverse-splicing fitness is on record?
A: 0.0172

Q: Which reverse-splicing fitness does the source give for C82G A120G A145C C150A C169G U176C here?
A: 0.0136

Q: With C82G A120G A145C C150A C169G U176A as the variant, how does the reverse-splicing fitness read?
A: 0.0232

Q: With C82G A120G A145C C150A C169G U176G as the variant, how does the reverse-splicing fitness read?
A: 0.00456

Q: Which reverse-splicing fitness does the source give for C82G A120G A145C C150A C169G here?
A: 0.00875

Q: For C82G A120G A145C C150A C169U, which reverse-splicing fitness is on record?
A: 0.00751

Q: With C82G A120G A145C C150A C169A as the variant, how does the reverse-splicing fitness read?
A: 0.00825

Q: With C82G A120U A145C C150A C169G as the variant, how does the reverse-splicing fitness read?
A: 0.00199

Q: With C82G A120U A145C C150A C169A as the variant, how does the reverse-splicing fitness read?
A: 0.00159

Q: For C82G A120G A145C C150U C169U, which reverse-splicing fitness is on record?
A: 0.0103

Q: With C82G A120G A145C C150U C169G as the variant, how does the reverse-splicing fitness read?
A: 0.0163

Q: With C82G A120G A145C C150U C169A as the variant, how does the reverse-splicing fitness read?
A: 0.0116

Q: With C82G A120G A145C C150U U176G as the variant, how does the reverse-splicing fitness read?
A: 0.00485

Q: For C82G A120G A145C C150U U176C, which reverse-splicing fitness is on record?
A: 0.00922

Q: Which reverse-splicing fitness does the source give for C82G A120G A145C C150U U176A here?
A: 0.00928

Q: For C82G A120C C150G, which reverse-splicing fitness is on record?
A: 0.0159

Q: With C82G A120C C150U as the variant, how does the reverse-splicing fitness read?
A: 0.108

Q: Which reverse-splicing fitness does the source give for C82G A120C C150A here?
A: 0.0228

Q: With C82G A120C C150A C169G U176G as the variant, how does the reverse-splicing fitness read?
A: 0.00501

Q: Which reverse-splicing fitness does the source give for C82G A120C C150A C169G U176C here?
A: 0.0222

Q: Which reverse-splicing fitness does the source give for C82G A120C C150A C169G U176A here?
A: 0.0187

Q: For C82G A120C C150G C169A U176A, which reverse-splicing fitness is on record?
A: 0.01

Q: Which reverse-splicing fitness does the source give for C82G A120C C150G C169A U176G here?
A: 0.0082

Q: Which reverse-splicing fitness does the source give for C82G A120C C150G C169A U176C here?
A: 0.0106

Q: For C82G A120C C150A C169U U176G, which reverse-splicing fitness is on record?
A: 0.00663

Q: For C82G A120C C150A C169U U176C, which reverse-splicing fitness is on record?
A: 0.0182

Q: With C82G A120C C150A C169U U176A as the variant, how does the reverse-splicing fitness read?
A: 0.0156

Q: With C82G A120G A145G C150U C169U U176C as the variant, how does the reverse-splicing fitness read?
A: 0.0187

Q: Which reverse-splicing fitness does the source give for C82G A120G A145G C150U C169U U176G here?
A: 0.00473

Q: With C82G A120G A145G C150U C169U U176A as the variant, how does the reverse-splicing fitness read?
A: 0.0213

Q: For C82G A120C C169G, which reverse-splicing fitness is on record?
A: 0.00817

Q: For C82G A120C C169A, which reverse-splicing fitness is on record?
A: 0.00902

Q: With C82G A120C C169U as the variant, how does the reverse-splicing fitness read?
A: 0.0232

Q: With C82G A120G A145U C150G C169G U176C as the variant, how does the reverse-splicing fitness read?
A: 0.00564

Q: Which reverse-splicing fitness does the source give for C82G A120G A145U C150G C169G U176G here?
A: 0.00385

Q: For C82G A120G A145U C150G C169G U176A, which reverse-splicing fitness is on record?
A: 0.00742

Q: With C82G A120G A145C C150G C169G as the variant, how does the reverse-splicing fitness read?
A: 0.0108

Q: With C82G A120G A145C C150G C169U as the variant, how does the reverse-splicing fitness read?
A: 0.00976

Q: Which reverse-splicing fitness does the source give for C82G A120G A145C C150G C169A here?
A: 0.0102

Q: With C82G A120G C169A U176A as the variant, how does the reverse-splicing fitness read?
A: 0.0209

Q: With C82G A120G C169A U176G as the variant, how does the reverse-splicing fitness read?
A: 0.00403

Q: Which reverse-splicing fitness does the source give for C82G A120G C169A U176C here?
A: 0.0252

Q: Which reverse-splicing fitness does the source give for C82G A120G A145U C169A U176C here?
A: 0.0199

Q: With C82G A120G A145U C169A U176A as the variant, how does the reverse-splicing fitness read?
A: 0.0122

Q: With C82G A120G A145U C169A U176G as the variant, how does the reverse-splicing fitness read?
A: 0.00363

Q: For C82G A120G A145C C150G C169U U176A, which reverse-splicing fitness is on record?
A: 0.0154
